Assay results taken from publication PMC8278288 (Frontiers in Immunology, 2021).

Tests used:
[1] = target: T1, IL-7 receptor ectodomain (rhIL-7Rα) (human, UniProt P16871 21-239); assay: SPR
T1 chain: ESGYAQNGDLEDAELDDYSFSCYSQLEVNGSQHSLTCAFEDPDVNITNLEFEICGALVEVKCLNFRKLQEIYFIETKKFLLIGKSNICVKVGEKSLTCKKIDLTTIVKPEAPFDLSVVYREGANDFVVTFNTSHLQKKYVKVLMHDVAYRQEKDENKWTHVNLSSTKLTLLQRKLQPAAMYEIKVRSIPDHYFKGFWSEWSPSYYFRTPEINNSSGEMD

[2] = target: T2, N-terminal fragment of MMP-9-cleaved His-tagged human IL-7 produced in insect cells (IL-7*) (human, UniProt P13232 26-128, N-linked glycosylation (partially glycosylated; sites shown in Figure 1D)); assay: pull-down; His-tagged IL-7 (C-terminal tag) digested with MMP-9, histidine tag pull-down with Ni-NTA magnetic microbeads under native conditions; bound and non-bound proteins resolved by reducing SDS-PAGE; conditions: both partners purified
T2 construct: Interleukin-7, human, N-terminal fragment up to Ala128 (MMP-9 cleavage between Ala128 and Leu129); also called N-terminal fragment of IL-7; source: bought: Novus (produced in insect cells), then digested with MMP-9
T2 sequence (looked up): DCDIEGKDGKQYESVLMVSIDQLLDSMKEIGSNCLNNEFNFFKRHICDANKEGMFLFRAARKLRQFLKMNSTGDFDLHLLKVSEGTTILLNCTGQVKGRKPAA

[3] = target: T3, N-terminal fragment of MMP-9-cleaved human IL-7 produced in HEK-293 cells (IL-7*) (human, UniProt P13232 26-128, N-linked oligosaccharides (sites shown in Figure 1D)); assay: non-reducing SDS-PAGE; IL-7 digested with MMP-9, electrophoresis with SDS and without reducing agent, compared with reducing conditions; conditions: both partners purified
T3 construct: Interleukin-7, human, N-terminal fragment up to Ala128 (MMP-9 cleavage between Ala128 and Leu129); source: bought: Biolegend (produced in human HEK-293 cells), then digested with MMP-9
T3 sequence (looked up): T2 sequence (looked up)

[4] = target: T4, N-terminal fragment of MMP-9-cleaved human IL-7 produced in E. coli (IL-7*) (human, UniProt P13232 26-128); assay: as above; conditions: both partners purified
T4 construct: Interleukin-7, human, N-terminal fragment up to Ala128 (MMP-9 cleavage between Ala128 and Leu129); source: bought: Peprotech (produced in E. coli), then digested with MMP-9
T4 sequence (looked up): T2 sequence (looked up)

B1: MMP-9-cleaved recombinant human IL-7 produced in E. coli (cIL-7) (complex)
chain 1: T2 sequence (looked up)
chain 2: LGEAQPTKSLEENKSLKEQKKLNDLCFLKRLLQEIKTCWNKILMGTKEH
[1]
  Kd: 64 nM

B2: MMP-9-cleaved recombinant human IL-7 produced in human HEK-293 cells (cIL-7) (complex)
chain 1: T2 sequence (looked up)
chain 2: B1 chain 2
modifications: N-linked oligosaccharides (sites shown in Figure 1D)
[1]
  Kd: 290 nM

B3: C-terminal fragment of MMP-9-cleaved His-tagged human IL-7 produced in insect cells (IL-7**) (domain or fragment, UniProt P13232 129-177, looked up)
chain: B1 chain 2
notes: Interleukin-7, human, C-terminal fragment from Leu129 (neo-N-terminus LGEAQ); Held on nickel beads by the C-terminal His tag; source: bought: Novus (produced in insect cells), then digested with MMP-9; not shown: His tag, C-terminal, kept
[2]
  binding result: binds

B4: C-terminal fragment of MMP-9-cleaved human IL-7 produced in HEK-293 cells (IL-7**) (domain or fragment, UniProt P13232 129-177, looked up)
chain: B1 chain 2
notes: Interleukin-7, human, C-terminal fragment from Leu129 (neo-N-terminus LGEAQ); source: bought: Biolegend (produced in human HEK-293 cells), then digested with MMP-9
[3]
  binding result: binds

B5: C-terminal fragment of MMP-9-cleaved human IL-7 produced in E. coli (IL-7**) (domain or fragment, UniProt P13232 129-177, looked up)
chain: B1 chain 2
notes: Interleukin-7, human, C-terminal fragment from Leu129 (neo-N-terminus LGEAQ); source: bought: Peprotech (produced in E. coli), then digested with MMP-9
[4]
  binding result: binds
